From the DeepSol protein solubility set

Assay: soluble on expression in E. coli; label from the status in PepcDB or PDB records
In the case of “SNAMVEAIIFDMDGVLFDTEKYYYDRRASFLGQKGISIDHLPPSFFIGGNTKQVWENILRDEYDKWDVSTLQEEYNTYKQNNPLPYKELIFPDVLKVLNEVKSQGLEIGLASSSVKADIFRALEENRLQGFFDIVLSGEEFKESKPNPEIYLTALKQLNVQASRALIIEDSEKGIAAGVAADVEVWAIRDNEFGMDQSAAKGLLDSLTDVLDLI”, the “soluble on expression in E. coli” value is reported as “soluble”. In the case of “MVYVSNKYLTMSEMKVNAQYILNYLSSNGWTKQAICGMLGNMQSESTINPGLWQNLDEGNTSLGFGLVQWTPASNYINWANSQGLPYKNMDSELKRIIWEVNNNAQWINLRDMTFKEYIKSTKTPRELAMIFLASYERPANPNQPERGDQAEYWYKNLSGGGGGGLQLAQFPMDIINISQGENGSFSHKGTLCIDFVGKTEKYPYYAPCDCTCVWRGDASAYLAWTSDKEVMCADGSVRYITWVNVHESPLPFDVGKKLKKGDLMGHTGIGGNVTGDHWHFNVIDGKEYQGWTKKPDSCLAGTELHIYDVFAVNNVEIINGNGYDWKTSDWQDG”, the “soluble on expression in E. coli” value is reported as “soluble”. In the case of “MENLKKYLEVAKIAALAGGQVLKENFGKVKKENIEEKGEKDFVSYVDKTSEERIKEVILKFFPDHEVVGEEMGAEGSGSEYRWFIDPLDGTKNYINGFPIFAVSVGLVKGEEPIVGAVYLPYFDKLYWGAKGLGAYVNGKRIKVKDNESLKHAGVVYGFPSRSRRDISIYLNIFKDVFYEVGSMRRPGAAAVDLCMVAEGIFDGMMEFEMKPWDITAGLVILKEAGGVYTLVGEPFGVSDIIAGNKALHDFILQVAKKYMEVAV”, the “soluble on expression in E. coli” value is reported as “soluble”. In the case of “MGSDKIHHHHHHMLESYITVKQDGFSEIEIKKSRFICSVKRVTSEEEAKAFIAAIKKEHWKANHNCSAFVIGEKNDIQRSSDDGEPSGTAGVPMLEVLKKKELINVVAVVTRYFGGIKLGTGGLIRAYSHALSHTLDEIGLVIGKLQQELLITIAYPLLGKAQAFLEHSPYTLKETIYTESIQLICLVDEQATETFIAEMTDLLNGQLTIEKGATSYHELPFNEKGAQANDI”, the “soluble on expression in E. coli” value is reported as “not soluble”. With “MGSSHHHHHHGKTIFVIVPTNEEQVAFLEALAKQDELNFDWQNPPTEPGQPVVILIPSDMVEWFLEMLKAKGIPFTVYVEEGGSENLYFQGGGGGGRRGFTETVSPVAGFHIFTLFLLRELIEPWSQGQVRAQAARAREAQRRSFTTDIAMQYREKLD” the “soluble on expression in E. coli” value was “soluble”. In the case of “MGSDKIHHHHHHMADDETRKYVIPGLERGLTILMALSRSHREMSLAEIVKCVEWPKASVYRAVQTLEYMGFVRRHPSSGLYSLGVSVLRLGFEYVSSLDLVQVGQPVIESLRDRSGCSSHIVIRDGRDVIYVARVSAAGTTTHRVSVGTRLPVHRTSLGRVLLTGMSREAFERLYPDPELPDTRPGAPADREALWQLVQDDRARGYVVGESFFQLGISSIVYPLFTQEGDVAGAISIMVPVHEIPAEDRERLRGYVEDAAMTISEMLGYHDPRARRSDMP”, the “soluble on expression in E. coli” value is reported as “not soluble”. For “MAHHHHHHMNEKNKDINKYTSTNNMYKLSENNHKSLLENLKRRGIIDDDDVYNTMLQVDRGKYIKEIPYIDTPVYISHGVTISAPHMHALSLKRLINVLKPGSRAIDVGSGSGYLTVCMAIKMNVLENKNSYVIGLERVKDLVNFSLENIKRDKPELLKIDNFKIIHKNIYQVNEEEKKELGLFDAIHVGASASELPEILVDLLAENGKLIIPIEEDYTQVLYEITKKNGKIIKDRLFDVCFVSLKKN”, the “soluble on expression in E. coli” value was “not soluble”. For “MATSVLCCLRCCRDGGTGHIPLKEMPAVQLDTQHMGIWGIGVATQKVNLNQIPLGRDMHSLVMRNDGALYHNNEEKNRLPANSLPQEGDVVGITYDHVELNVYLNGKNMHCPASGIRGTVYPVVYDDDSAILDCQFSEFYHTPPPGFEKILFEQQIF”, the “soluble on expression in E. coli” value was “not soluble”. For “MRGSHHHHHHTDPALRAPIIQSVERALQILDLFNEQATELKITDISKLMGLSKSTLHSLLKTLQLHGYIDQNPENGKYRLGMKLVERGHFVVGSIDIRQKAKGWLTELSRRTGQTTHLGILDGREGVYIEKIEGKLAAIAYSRIGRRLPVHATAIGKVLIAWLGEAELNALLEGYQYTTFTPATLASREALMSALAQTREQGYALDSEENEQGVRCVAVPVWNHESRVIAALSLSTLTSRVDDAELANFREQLQQAGLALSRALGYPAGLCGR”, the “soluble on expression in E. coli” value was “soluble”. With “MGSDKIHHHHHHMKPLRKIRLGIVGCGIAARELHLPALKNLSHLFEITAVTSRTRSHAEEFAKMVGNPAVFDSYEELLESGLVDAVDLTLPVELNLPFIEKALRKGVHVICEKPISTDVETGKKVVELSEKSEKTVYIAENFRHVPAFWKAKELVESGAIGDPVFMNWQIWVGMDENNKYVHTDWRKKPKHVGGFLSDGGVHHAAAMRLILGEIEWISAVAKDLSPLLGGMDFLSSIFEFENGTVGNYTISYSLKGNERFEITGTKGKISISWDKIVLNEEEMKVPQENSYQKEFEDFYQVVAEGKPNDLGSPVQALKDLAFIEACVRSAGNKVFVSSLL” the “soluble on expression in E. coli” value was “soluble”. For “MCIHTIPYYSAKRRRIMDNQFFKNIEKKTGVKMQDVMNLAGSLQNANFKDENTVRSVINRVAQMANRRVPKELEDKIVESITSGKEKLDFGTISKMMDNKLEHHHHHH”, the “soluble on expression in E. coli” value was “not soluble”. With “VGTRSKSRTRQLKQSNGCTATTSGASDRRRRARRRTAPAWLREDEWLRHHLPHPPRQLSRCLHRRRRSACHHRYSRRTPKGGLPMTSSLVPISEARAHLSRLVRESADDDVVLMNHGRPAAILISAERYESLMEELEDLRDRLSVHEREHVTMPLDKLGAELGVDIGRV” the “soluble on expression in E. coli” value was “not soluble”. For “MIYAYIRVSTDKQTVENQRFEINRFAKQRDFQIDVWVEETVSGTRSAKDRKLGVLLKRIKKGDTLIVSEISRLGRRLMEVMSILNACMLKNVILLTVKEKYELGNNIQSQILAFAFSLSAQIERDLISQRTREGLARRIASGQKLGRPMGGHNSKYKLTGKEEKIKAMLEAGTSKAEMARKLKVSRNTLAAFLNRNRTGIPSN”, the “soluble on expression in E. coli” value was “not soluble”. In the case of “MNEQYSALRSNVSMLGKVLGETIKDALGEHILERVETIRKLSKSSRAGNDANRQELLTTLQNLSNDELLPVARAFSQFLNLANTAEQYHSISPKGEAASNPEVIARTLRKLKNQPELSEDTIKKAVESLSLELVLTAHPTEITRRTLIHKMVEVNACLKQLDNKDIADYEHNQLMRRLRQLIAQSWHTDEIRKLRPSPVDEAKWGFAVVENSLWQGVPNYLRELNEQLEENLGYKLPVEFVPVRFTSWMGGDRDGNPNVTADITRHVLLLSRWKATDLFLKDIQVLVSELSMVEATPELLALVGEEGAAEPYRYLMKNLRSRLMATQAWLEARLKGEELPKPEGLLTQNEELWEPLYACYQSLQACGMGIIANGDLLDTLRRVKCFGVPLVRIDIRQESTRHTEALGELTRYLGIGDYESWSEADKQAFLIRELNSKRPLLPRNWQPSAETREVLDTCQVIAEAPQGSIAAYVISMAKTPSDVLAVHLLLKEAGIGFAMPVAPLFETLDDLNNANDVMTQLLNIDWYRGLIQGKQMVMIGYSDSAKDAGVMAASWAQYQAQDALIKTCEKAGIELTLFHGRGGSIGRGGAPAHAALLSQPPGSLKGGLRVTEQGEMIRFKYGLPEITVSSLSLYTGAILEANLLPPPEPKESWRRIMDELSVISCDVYRGYVRENKDFVPYFRSATPEQELGKLPLGSRPAKRRPTGGVESLRAIPWIFAWTQNRLMLPAWLGAGTALQKVVEDGKQSELEAMCRDWPFFSTRLGMLEMVFAKADLWLAEYYDQRLVDKALWPLGKELRNLQEEDIKVVLAIANDSHLMADLPWIAESIQLRNIYTDPLNVLQAELLHRSRQAEKEGQEPDPRVEQALMVTIAGIAAGMRNTG”, the “soluble on expression in E. coli” value is reported as “soluble”. For “MNKANPKNIPPLAPKKVFIKTYGCQMNVYDSQRMTDSLSSKGYVATQTPNDADLILVNTCHIREKAAEKLYSDLGRLRVMRQERTPDKPLMVGVTGCVAQAEGSEILRRAPIVDLVIGPQMYHRLPDLLEQTKQGKKIVATEYAVEDKFAHLPPHNKRAVRKRGVSAFLTVQEGCDKFCTFCVVPYTRGAEISRSVEQITEEARQLIEAGVKEITLLGQNVNGWHGQNVNGKTWRLGDLLYHLAKLDGLKRLRYTTSHPRDMDDSLIAAHRDLDILMPYLHLPVQSGSDRILKAMNRQHKSIHYLQLIEKIRNARPDIAFSGDFIVGFPGETDEDFEETIKLIKQVEYSSAYSFKYSPRPGTVGATMKNHVEEAVKDARLQHLQVLLLEQQNAFLRSKIGQTTDVLIEKAGRHSGQMVGRSPWLLPVVVDTQASTGTVIPIHIKNTSSNSFVGEMTNM”, the “soluble on expression in E. coli” value was “not soluble”. With “MVKSIENVKLTKGLFYNSQKKGNDVILALDIDRLLAPYYEAANLPPKKRSYGGWEEREIRGHSLGHWLSAAAAMYETTGDKALLERIDRAVQELATIQDDVGYVGGVKRAHFDEMFSGEFQVGHFNIAGTWVPWYNLHKLFAGLIDVHQLTGHSLALTVVTKLADWAKKGTDQLTDDQFQRMLICEHGGMNEAMADLYTLTGHKDYLQLAIRFCHWAVLEPLANGIDELEGKHANTQIPKVIGAAKLFEITGDDTYRAIAEFFWRQVTNDRSYIIGGNSNSEHFGPANKETLGVETAETCNTYNMLKLTEHLFRWNRSSQLMDYYEKALYNHILASQDPDSGMKTYFVSLQPGHFKVYSSLEESFWCCFGTGLENPARYTRTIYDRDDRHIYVNLFMASEIHLKDLQVQIRQETNFPETDRTKLTFVKADGVSIKLHIRVPEWVAGPVTARINGKETFSESGADYLTIEREWQKGDEIEVHLPMELRIYEAKDDSHKVGIMYGPIVLAGTFGKDHFPETDIVPNHLSLHNHPLIDVPTLVATKKTPDQWIHPVEGRSLTFRTAAIGQPGNVQITLIPFYALHHERYTVYWNLMSEVEYEAFKARKEVESDQLQARTVDAVQPGEQQPEVEHQLKANHSETGYLNIMQKRWRDSRGEDGFFSYVMKVKPNQQMSLFVTYYGGDHGLFVDGKWCDRSFRILIDDEVIKEEQLLGKNPGETLDVYYPIPLALTEGKEEVVVTFASKEGTVAGGVYGVRMLCNLEHHHHHH” the “soluble on expression in E. coli” value was “soluble”. With “MSEDHHDEEQFDSAESGAAATFPKQCSALRKNEHVMIRGRPCKIVEMSTSKTGKHGHAKVHMVAIDIFTTKKLEDICPSTHNMDVPVVKRREYILMSIEDGFCSLMDPESCELKDDLKMPEGDLGNTIREALEKDEGSVLVQVVAACGEEAILGYKISTKE” the “soluble on expression in E. coli” value was “not soluble”. In the case of “MNRLLQQSVSRGPLAVRASSTITTKPPTPNQITKNNAQFDKVTHTGQAWDQSDYRLQRFDISKKSVNPNVAMHLIDQRPPEDCGDKRVVFCDGGHPALGHPKVYINLDKPGVHACGYCGNRFYNSHATKAEDMKIQHLNC”, the “soluble on expression in E. coli” value is reported as “not soluble”. With “MKLYMSVDMEGISGLPDDTFVDSGKRNYERGRLIMTEEANYCIAEAFNSGCTEVLVNDSHSKMNNLMVEKLHPEADLISGDVKPFSMVEGLDDTFRGALFLGYHARASTPGVMSHSMIFGVRHFYINDRPVGELGLNAYVAGYYDVPVLMVAGDDRAAKEAEELIPNVTTAAVKQTISRSAVKCLSPAKRGRLLTEKTAFALQNKDKVKPLTPPDRPVLSIEFANYGQAEWANLMPGTEIKTGTTTVQFQAKDMLEAYQAMLVMTELAMRTSFC” the “soluble on expression in E. coli” value was “soluble”. For “MGSDKIHHHHHHMKIEGLFNKYYNSFTANDKYICECILNHKEDCIKLSIDEFADKYHISTSALSRFAQKLQLPGYSELRVIIRLNETEVEYKNQSKHQLMDCYNKVIDDIEKKDCSIMFERMKKANRIIVFGEGYSQERVAKEMKRIFLPTGKIIYDVYGYDMIQALNHFIKTDDMIFFISLNGDASTIIDFAKEMRMKGIYMVSITKMISNPLARLCDENLYIQSISISVDKQLDYDVTTPYFILIELLYIKYKMYLESEHIPRK”, the “soluble on expression in E. coli” value was “not soluble”. For “MKVIAVNGGPRKQWNTATLLHKALEGAQSAGAETDLFHLYDLNYKGCISCFGCKRKNSSRIGHCVLKDELTPLLEEVLKCDALLLGSPIYFGNVTGAMRSFLERLFFSLLSYNEGQRTVFPRKVASGFIYTMNVPEDFLPQLEHHHHHH”, the “soluble on expression in E. coli” value was “soluble”.
